Test results taken from patent publication US20220390449A1, “NEW S[…] FOR THE LATENT FORM OF TOXOPLASMOSIS” (INSERM (INSTITUT NATIONAL DE LA SANTÉ ET DE LA RECHERCHE …, priority 2019, published 2022).
Entries after “also recorded” stand apart in the source; their conditions may differ.

How the values were obtained:
BCLA positive sera = assay: Epitope mapping of BCLA repeat and rBCLA (dot blot peptide assay); type: binding; details: 59 peptides of 15 aa covering res 1089-1275; human sera 1/400
Excerpt: Epitope mapping of BCLA repeat and rBCLA. Dot blot peptide assays were custom synthetized by JPT Peptide technologies on cellulose membranes with N-Acetyl moieties on the N-terminus. Two sets of membranes were screened: 1) covering the rBCLA region (res 1089-1275) with a total of 59 peptides, each 15 aa long with an overlap of 12 and an offset of 3; 2) covering repeat 4 (res 446-493) with a total of 18 peptides, each 15 aa long with an overlap of 12 and an offset of 3. Dot blot assays were performed as described by the manufacturer. Briefly, the membranes were first activated 5 min in 100% ethanol then washed 3 times 3 min in DPBS-tween. Blocked O.N at 4° C. in DPBS-Tween 0.5% powdered milk then washed again 3*3 min in DPBS-tween. Tested sera were diluted to 1/400 in DPBS-tween 0.1% BSA and incubated for 3 h at RT with the membrane. Following a 3*3 min DPBS-tween wash, membranes were incubated with anti-IgG peroxidase coupled Ab (Sigma A0170) diluted to 1/100 000 for 2 h at RT. […] Dot intensity was integrated using ImageJ. […]. For data analysis of independent dot blots, integrated intensities from every peptide dot [I(p)] were normalised into enrichment factors Fe(p) using the baseline integrated intensity of peptide 59[I(p=59)] which never reacts with any sera. The following can be expressed with the following equation: […]
In order to increase the reactivity score over several independent positive sera blots symbolised as (+), Fe(p) enrichment scores were summed with each other and to subtract the non-specific reactivity, the same sum was performed on the same number of negative sera peptides, symbolised as (−) and subtracted. Peptide reactivity scores can be expressed though the following equation:
Rs(p)=[Σ(Fe(p))^(+)−Σ(Fe(p))^(−)]

[1] = target: T1, His rBCLA (HisTag-rBCLA: C-terminal domain of BCLA, res 1089-1275, with a TEV cleavable N-terminal His-tag) (Toxoplasma gondii); assay: ELISA, periplasmic extract on coated His rBCLA
T1 construct: also called Cter-BCLA; recombinant rBCLA
T1 chain: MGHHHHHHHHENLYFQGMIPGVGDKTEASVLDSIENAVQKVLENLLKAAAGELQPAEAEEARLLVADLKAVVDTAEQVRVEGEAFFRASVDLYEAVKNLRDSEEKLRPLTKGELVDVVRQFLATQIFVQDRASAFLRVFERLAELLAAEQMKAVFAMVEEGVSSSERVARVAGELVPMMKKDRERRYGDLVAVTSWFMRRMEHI

His rBCLA = assay: ELISA binding of purified VHH to immobilized His rBCLA; set-up: species or system Toxoplasma gondii; details: 200 ng/well antigen, serial dilution of VHH
Experimental: The binding of purified VHH to immobilized His rBCLA was analyzed by ELISA. A MaxiSorp plate was coated with 200 ng/well antigen overnight at 4° C. in PBS. After blocking the wells with 4% MPBS, a serial dilution of the VHH was added to the coated wells and incubated for 1 hour at room temperature. After washing unbound VHH, bound VHH were detected using a mouse-anti-flag (clone M2) and donkey-anti-mouse coupled to HRP. Binding was quantified by measuring colorimetric reaction of OPD+H2O2 at 490 nm. ERB-1G6, ERB-1B11 and ERB-1A12 show a subnanomolar apparent affinity to immobilized His rBCLA. ERB-1F1 and ERB-1F2 show a low nanomolar affinity. ERB-1H4 and ERB-1D7 show a […] apparent affinity to His rBCLA.

[2] = target: T1, His rBCLA (HisTag-rBCLA: C-terminal …); assay: ELISA, serial dilution of purified VHH on coated His rBCLA (200 ng/well), anti-flag detection
[3] = target: T1, His rBCLA (HisTag-rBCLA: C-terminal …); assay: ELISA on coated His rBCLA (conclusion of Example 2)
[4] = target: T1, His rBCLA (HisTag-rBCLA: C-terminal …); assay: phage display selection on His rBCLA and ELISA, as retold in the description

EGEAFFRASVDLYEA (Synthetic peptide 22 of rBCLA)
peptide reactivity (total reactivity score), rBCLA region array (BCLA positive sera): stronger zones of reactivity

QPAEAEEARLLVADL (Synthetic peptide 13 of rBCLA)
peptide reactivity (total reactivity score), rBCLA region array (BCLA positive sera): stronger zones of reactivity

KLRPLTKGELVDVVR (Synthetic peptide 30 of rBCLA)
peptide reactivity (total reactivity score), rBCLA region array (BCLA positive sera): stronger zones of reactivity

B1: VHH ERB-1D7 (VHH)
VHH: KVQLVESGGGLVQAGGSLRLSCAASGRTFSRRGMGWFRQAPGKEREFVATIKWSGTSTDYADSVKGRFTISRDNAKNTVYLQMNNLQPEDTAVYYCAADRQLYRDGYVPLNEYEDWGQGTQVTVSS
notes: also called VH ERB-1D7; not shown: C-terminal FLAG and His-tag from vector pMEK222
binding result [1]: binds

B2: ERB-1D7: single domain antibody (VHH) selected on His rBCLA, SEQ ID NO: 63 (protein)
VHH: KVQLVESGGGLVQAGGSLRLSCAASGRTFSRRGMGWFRQAPGKEREFVATIKWSGTSTDYADSVKGRFTISRDNAKNTVYLQMNNLQPEDTAVYYCAADRQLYRDGYVPLNEYEDWGQGTQVTVSS
modifications: Synthetic VHH ERB-1D7
apparent affinity to immobilized His rBCLA (His rBCLA): molar

B3: VHH ERB-1F1 (VHH)
VHH: EVQLVESGGGLVQAGDSLRLSCAASGRTFSRVTMGWFRQAPGKEREFVAGISWSGTRTDYPDSVKGRFTVSRDNAKKTMWLQMSSLRPEDTAVYHCAADSTLYGSAISNNREAYAYWGQGTQVTVSS
notes: also called VH ERB-1F1; not shown: C-terminal FLAG and His-tag from vector pMEK222
binding result [1]: binds

B4: ERB-1F1: single domain antibody (VHH) selected on His rBCLA, SEQ ID NO: 60 (protein)
VHH: EVQLVESGGGLVQAGDSLRLSCAASGRTFSRVTMGWFRQAPGKEREFVAGISWSGTRTDYPDSVKGRFTVSRDNAKKTMWLQMSSLRPEDTAVYHCAADSTLYGSAISNNREAYAYWGQGTQVTVSS
modifications: Synthetic VHH ERB-1F1
apparent affinity to immobilized His rBCLA (His rBCLA): low nanomolar

B5: VHH ERB-1G6 (VHH)
VHH: EVQLVESGGGLVQAGGSLGLSCAASGRPGRIFTRNSMAWFRQAPGKEREFVASINWSGTSTSYADSVKGRFAISRDNDKNTVYLQMNSLKPEDTAVYYCAADSALYGSMHKTPADYEYWGQGTQVTVSS
notes: also called VH ERB-1 G6; not shown: C-terminal FLAG and His-tag from vector pMEK222
binding result [2]: binds

B6: ERB-1G6: single domain antibody (VHH) selected on His rBCLA, SEQ ID NO: 57 (protein)
VHH: EVQLVESGGGLVQAGGSLGLSCAASGRPGRIFTRNSMAWFRQAPGKEREFVASINWSGTSTSYADSVKGRFAISRDNDKNTVYLQMNSLKPEDTAVYYCAADSALYGSMHKTPADYEYWGQGTQVTVSS
modifications: Synthetic VHH ERB-1G6
apparent affinity to immobilized His rBCLA (His rBCLA): subnanomolar; also recorded: very good

B7: VHH ERB-1H4 (VHH)
VHH: EVQLVESGGGLVQAGGSLRLSCVASGRTFSRYTVGWFRQAPGKEREFVAGISWSGSRTSYADSVKGRFTISRDNDKTTGYLQMNSLKPEDTAVYYCAAITKLYENNIPRSVSDYALWGQGTQVTVSS
notes: also called VH ERB-1H4; not shown: C-terminal FLAG and His-tag from vector pMEK222
binding result [1]: binds

B8: ERB-1H4: single domain antibody (VHH) selected on His rBCLA, SEQ ID NO: 62 (protein)
VHH: EVQLVESGGGLVQAGGSLRLSCVASGRTFSRYTVGWFRQAPGKEREFVAGISWSGSRTSYADSVKGRFTISRDNDKTTGYLQMNSLKPEDTAVYYCAAITKLYENNIPRSVSDYALWGQGTQVTVSS
modifications: Synthetic VHH ERB-1H4
apparent affinity to immobilized His rBCLA (His rBCLA): molar

B9: VHH ERB-1A12 (VHH)
VHH: EVQLVESGGGLVQAGGSLRLSCAASGRTFSRYFMGWFRQAPGKEREFVAGIIWSGTRTYYVDSVKGRFTISRDNDKRMVYLQMNSLKPEDTAVYYCAAYKEYYGTPAQLYAAASYDYWGQGTQVTVSS
notes: also called VH ERB-1A12; not shown: C-terminal FLAG and His-tag from vector pMEK222
binding result [3]: binds

B10: ERB-1A12: single domain antibody (VHH) selected on His rBCLA, SEQ ID NO: 59 (protein)
VHH: EVQLVESGGGLVQAGGSLRLSCAASGRTFSRYFMGWFRQAPGKEREFVAGIIWSGTRTYYVDSVKGRFTISRDNDKRMVYLQMNSLKPEDTAVYYCAAYKEYYGTPAQLYAAASYDYWGQGTQVTVSS
modifications: Synthetic VHH ERB-1A12
apparent affinity to immobilized His rBCLA (His rBCLA): subnanomolar; also recorded: very good

B11: VHH ERB-1B11 (VHH)
VHH: EVQLVESGGGLVQAGGSLRLTCAASGRTFRRSNMAWFRQPPGKERDFVAAIKWSGSSTNYADSVKGRFTISRDNDKNTVYLQMNVLKPEDTGVYYCAQESSLYSNYLPVVSSAYDYWGQGTQVTVSS
notes: also called VH ERB-1 B11; not shown: C-terminal FLAG and His-tag from vector pMEK222
binding result [4]: binds

B12: ERB-1B11: single domain antibody (VHH) selected on His rBCLA, SEQ ID NO: 58 (protein)
VHH: EVQLVESGGGLVQAGGSLRLTCAASGRTFRRSNMAWFRQPPGKERDFVAAIKWSGSSTNYADSVKGRFTISRDNDKNTVYLQMNVLKPEDTGVYYCAQESSLYSNYLPVVSSAYDYWGQGTQVTVSS
modifications: Synthetic VHH ERB-1B11
apparent affinity to immobilized His rBCLA (His rBCLA): subnanomolar; also recorded: very good

B13: VHH ERB-1F2 (VHH)
VHH: EVQLVESGGGLVQVGGSLRLSCAASGRTFRRNTIGWFRQAPGKEREFVAAISWSGTRTKYADPVKGRFTISRDNDKNTAYLQMNTLKPDDTAVYYCAADGALYGSDVSGLARVYDYWGQGTQVTVSS
notes: also called VH ERB-1F2; not shown: C-terminal FLAG and His-tag from vector pMEK222
binding result [1]: binds

B14: ERB-1F2: single domain antibody (VHH) selected on His rBCLA, SEQ ID NO: 61 (protein)
VHH: EVQLVESGGGLVQVGGSLRLSCAASGRTFRRNTIGWFRQAPGKEREFVAAISWSGTRTKYADPVKGRFTISRDNDKNTAYLQMNTLKPDDTAVYYCAADGALYGSDVSGLARVYDYWGQGTQVTVSS
modifications: Synthetic VHH ERB-1F2
apparent affinity to immobilized His rBCLA (His rBCLA): low nanomolar
